Source: US20240190986A1 (ZHEJIANG NANOMAB TECHNOLOGY CENTER, published 2024)

Biological target: T1, MSLN·His protein (human, UniProt Q13421 296-580, limits assumed)
T1 construct: Bought protein; also called human MSLN·His antigen; not shown: His tag
Assay: ELISA, antigen coated, TG1 supernatant; further: test concentration or dose not given here

T1 sequence (Q13421 other isoform, or with tags, fused parts or gaps limits assumed): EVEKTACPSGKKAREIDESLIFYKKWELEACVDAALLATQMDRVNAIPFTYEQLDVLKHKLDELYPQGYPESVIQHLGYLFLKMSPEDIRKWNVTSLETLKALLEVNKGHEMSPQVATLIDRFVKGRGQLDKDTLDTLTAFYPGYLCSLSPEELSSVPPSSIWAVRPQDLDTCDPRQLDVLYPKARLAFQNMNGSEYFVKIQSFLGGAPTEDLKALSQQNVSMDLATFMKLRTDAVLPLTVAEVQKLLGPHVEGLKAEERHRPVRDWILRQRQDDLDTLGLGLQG

B1: M2339 (VHH)
VHH: QLQLGASGGGLVQPGGSLRLSCALSGFTLRELDEFAIGWFRQAPGKEREGVSCISGTGGITHYADSVKGRFTISRDIAKTTVYLQMNSLNSEDTAVYYCAADERCTDRLIRPPTYWGQGTQVTVSS
notes: Nanoantibody in TG1 supernatant in the screening ELISA; also called clone M2339
ELISA (OD450): 2.15 OD450
